Measurements published in article PMC5570898.

Biological target: CHL1 on ventral midbrain dopaminergic neurons (mouse (endogenous in ventral midbrain primary neurons)) (UniProt P70232)

increase of TH+ neurite branching in E12.5 VM primary cultures on bound CHL1, against the Fc control: 2.4 fold
increase of TH+ neurite branching in E12.5 VM primary cultures with soluble CHL1, against the PDL control: 5 fold
increase of TH+ neurite length in E12.5 VM primary cultures on bound CHL1, against the Fc control: 1.8 fold
increase of TH+ neurite length in E12.5 VM primary cultures with soluble CHL1, against the PDL control: 2 fold
Substance: CHL1 recombinant protein (from UniProt P70232 26-1083) (natural protein)
